Starred links: 1 amine or outer side, 2 acyl side, 3 side chain; linkers in the order of their positions; H or OH if unused. Positions of bridges follow the written chain, without caps; N, C: chain ends. Non-standard residues stand in square brackets, D forms with d. Primed or numbered codes have the meaning given here. *: point of attachment. B5(29) = 2-amino-2-(pent-4-en-1-yl)hept-6-enoic acid (2,2-bis(4-pentenyl)glycine), stitching residue bearing both staples, C=CCCCC(CCCC=C)(N[*:1])C(=O)[*:2]; PyrS2″ = (S)-3-amino-1-((pent-4-en-1-yloxy)carbonyl)pyrrolidine-3-carboxylic acid (stapling residue), C=CCCCOC(=O)N1CC[C@@](N[*:1])(C(=O)[*:2])C1; B5(6) = 2-amino-2-(pent-4-en-1-yl)hept-6-enoic acid (bis(4-pentenyl)glycine), stitching residue, C=CCCCC(CCCC=C)(N[*:1])C(=O)[*:2]; 4MePipBz = 4-((4-methylpiperazin-1-yl)methyl)benzoyl on Lys side chain, CN1CCN(Cc2ccc(C(=O)*)cc2)CC1; B5(3) = 2,2-bis(4-pentenyl)glycine (stitching residue), C=CCCCC(CCCC=C)(N[*:1])C(=O)[*:2]; Bta = N[C@@H](Cc1csc2ccccc12)C(=O)O; αAllylPro = C=CC[C@@]1(C(=O)O)CCCN1; tBuAla = CC(C)(C)C[C@H](N)C(=O)O; 3Thi = N[C@@H](Cc1ccsc1)C(=O)O; S8 = C=CCCCCCC[C@](C)(N)C(=O)O; hSer = N[C@@H](CCO)C(=O)O
T1: B-cat-Halo (beta-catenin HaloTag NanoBRET construct expressed in HEK293 cells) (UniProt P35222 1-781)
T1 sequence (looked up): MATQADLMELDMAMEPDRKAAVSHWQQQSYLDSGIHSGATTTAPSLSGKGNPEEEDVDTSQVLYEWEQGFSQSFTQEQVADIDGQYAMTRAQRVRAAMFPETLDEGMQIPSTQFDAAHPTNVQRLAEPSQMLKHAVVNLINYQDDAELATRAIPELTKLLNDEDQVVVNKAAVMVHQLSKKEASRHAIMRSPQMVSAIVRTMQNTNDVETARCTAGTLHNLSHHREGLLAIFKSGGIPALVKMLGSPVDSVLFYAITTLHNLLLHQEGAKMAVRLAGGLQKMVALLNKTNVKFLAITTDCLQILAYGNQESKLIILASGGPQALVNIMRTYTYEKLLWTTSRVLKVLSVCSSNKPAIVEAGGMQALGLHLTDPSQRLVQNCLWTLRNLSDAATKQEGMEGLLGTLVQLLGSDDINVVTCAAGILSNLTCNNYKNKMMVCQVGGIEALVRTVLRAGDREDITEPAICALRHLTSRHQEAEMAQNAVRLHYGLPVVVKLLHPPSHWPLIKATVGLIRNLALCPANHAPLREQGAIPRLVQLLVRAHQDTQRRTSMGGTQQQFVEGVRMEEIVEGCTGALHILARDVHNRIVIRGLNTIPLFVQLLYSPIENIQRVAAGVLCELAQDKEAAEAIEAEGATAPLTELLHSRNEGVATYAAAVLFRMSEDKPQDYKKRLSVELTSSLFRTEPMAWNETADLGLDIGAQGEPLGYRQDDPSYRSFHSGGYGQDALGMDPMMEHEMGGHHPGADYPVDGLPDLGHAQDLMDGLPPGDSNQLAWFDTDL

T2: full-length beta-Catenin (Uniprot ID P35222) (Homo sapiens (Human), UniProt P35222 1-781)
T2 construct: Used full-length in the fluorescence polarization probe solution (10 nM); also called bCat; B-Catenin
T2 sequence: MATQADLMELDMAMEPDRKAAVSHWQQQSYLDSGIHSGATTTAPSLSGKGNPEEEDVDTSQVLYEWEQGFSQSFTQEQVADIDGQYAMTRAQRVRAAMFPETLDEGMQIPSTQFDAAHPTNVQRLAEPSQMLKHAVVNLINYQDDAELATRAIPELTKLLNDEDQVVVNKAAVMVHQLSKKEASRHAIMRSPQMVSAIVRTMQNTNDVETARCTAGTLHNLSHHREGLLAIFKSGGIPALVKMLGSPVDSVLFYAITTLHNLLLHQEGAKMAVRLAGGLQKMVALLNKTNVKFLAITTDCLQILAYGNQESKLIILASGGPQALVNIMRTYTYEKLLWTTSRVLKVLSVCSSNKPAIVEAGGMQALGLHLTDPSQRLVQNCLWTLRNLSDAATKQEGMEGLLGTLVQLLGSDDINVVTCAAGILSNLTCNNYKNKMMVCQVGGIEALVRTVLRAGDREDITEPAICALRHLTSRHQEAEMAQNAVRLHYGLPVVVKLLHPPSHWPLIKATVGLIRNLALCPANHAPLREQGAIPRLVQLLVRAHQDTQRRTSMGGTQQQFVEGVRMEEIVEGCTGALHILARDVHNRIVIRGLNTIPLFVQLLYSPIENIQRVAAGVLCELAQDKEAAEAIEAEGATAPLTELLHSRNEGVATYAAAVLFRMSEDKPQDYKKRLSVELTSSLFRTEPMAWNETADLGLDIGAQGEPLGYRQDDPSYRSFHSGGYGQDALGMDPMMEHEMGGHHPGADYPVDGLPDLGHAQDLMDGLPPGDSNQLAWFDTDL

B1: I-889 (peptide)
peptide: Ac-[αAllylPro]D[tBuAla][B5(3)]DDAK(4MePipBz)FN[PyrS2″][3Thi][Bta]Q-NH2
modifications: staple 1-4, 4-11
B2: I-494 (peptide)
peptide: XDAXDEAAFQXFXQ
modifications: not fully specified; Ac-PL3-Asp-Ala-B5-Asp-Glu-Ala-Ala-Phe-Gln-S8-Phe-BztA-DGIn-NH2 (so in the source); read as D-Gln at position 14); N-terminal acetyl, C-terminal amide; stapled PL3-B5 and B5-S8
notes: Stapled peptide composition
B3: I-496 (peptide)
peptide: Ac-[αAllylPro]DA[B5(6)][hSer]EAAFQ[S8]F[Bta]Q-NH2
modifications: staple 1-4, 4-11; not fully specified; printed as Ac-PL3-Asp-Ala-B5-Hse-Glu-Ala-Ala-Phe-Gln-S8-Phe-BztA-Gln-NH2
notes: Stapled peptide composition
B4: I-497 (peptide)
peptide: Ac-[αAllylPro]DA[B5(6)][hSer]EAAFQ[S8]F[Bta]Q-NH2
modifications: staple 1-4, 4-11; not fully specified; printed as Ac-PL3-Asp-Ala-B5-Hse-Glu-Ala-Ala-Phe-Gln-S8-Phe-BztA-Gln-NH2
notes: Stapled peptide composition
B5: I-493 (peptide)
peptide: XDAXDEAAFQXFXS
modifications: not fully specified; Ac-PL3-Asp-Ala-B5-Asp-Glu-Ala-Ala-Phe-Gln-S8-Phe-BztA-DSer-NH2; N-terminal acetyl, C-terminal amide; D-Ser at position 14; stapled PL3-B5 and B5-S8
notes: Stapled peptide composition
B6: I-498 (peptide)
peptide: Ac-[αAllylPro]DA[B5(6)][hSer]EAAFQ[S8]F[Bta]Q-NH2
modifications: staple 1-4, 4-11; not fully specified; printed as Ac-PL3-Asp-Ala-B5-Hse-Glu-Ala-Ala-Phe-Gln-S8-Phe-BztA-Gln-NH2
notes: Stapled peptide composition
B7: I-491 (peptide)
peptide: XDAXDEAAFQXFXS
modifications: not fully specified; Ac-PL3-Asp-Ala-B5-Asp-Glu-Ala-Ala-Phe-Gln-S8-Phe-BztA-Hse-NH2; N-terminal acetyl, C-terminal amide; stapled PL3-B5 and B5-S8
notes: Stapled peptide composition
B8: I-477 (peptide)
peptide: Ac-[αAllylPro]DT[B5(29)]DEAAFQ[S8]F[Bta]Q-NH2
modifications: staple 1-4, 4-11
notes: Stapled peptide composition
B9: I-492 (peptide)
peptide: XDAXDEAAFQXFXS
modifications: not fully specified; Ac-PL3-Asp-Ala-B5-Asp-Glu-Ala-Ala-Phe-Gln-S8-Phe-BztA-Hse-NH2; N-terminal acetyl, C-terminal amide; stapled PL3-B5 and B5-S8
notes: Stapled peptide composition
B10: I-472 (peptide)
peptide: Ac-[αAllylPro]DI[B5(6)]DEAAFN[S8]F[Bta]H-NH2
modifications: staple 1-4, 4-11
notes: Stapled peptide composition
B11: I-470 (peptide)
peptide: Ac-[αAllylPro]DI[B5(6)]DDAAFN[S8]F[Bta]H-NH2
modifications: staple 1-4, 4-11; also: separate HPLC peak/isomer composition from I-469
notes: Stapled peptide composition
B12: I-475 (peptide)
peptide: XDIXDEAAFNXFXQ
modifications: not fully specified; Ac-PL3-Asp-aIle-B5-Asp-Glu-Ala-Ala-Phe-Asn-S8-Phe-BztA-Gln-NH2; N-terminal acetyl, C-terminal amide; stapled PL3-B5 and B5-S8
notes: Stapled peptide composition
B13: I-495 (peptide)
peptide: XDIXDEAAFQXFXN
modifications: not fully specified; Ac-PL3-Asp-Ile-B5-Asp-Glu-Ala-Ala-Phe-Gln-S8-Phe-BztA-Asn-NH2; N-terminal acetyl, C-terminal amide; stapled PL3-B5 and B5-S8
notes: Stapled peptide composition
B14: I-476 (peptide)
peptide: XDIXDEAAFNXFXQ
modifications: not fully specified; Ac-PL3-Asp-aIle-B5-Asp-Glu-Ala-Ala-Phe-Asn-S8-Phe-BztA-Gln-NH2; N-terminal acetyl, C-terminal amide; stapled PL3-B5 and B5-S8
notes: Stapled peptide composition
B15: I-479 (peptide)
peptide: XDAXDEAAFNXFXH
modifications: not fully specified; Ac-PL3-Asp-Ala-B5-Asp-Glu-Ala-Ala-Phe-Asn-S8-Phe-BztA-1MeH-NH2; N-terminal acetyl, C-terminal amide; stapled PL3-B5 and B5-S8
notes: Stapled peptide composition
B16: I-471 (peptide)
peptide: Ac-[αAllylPro]DI[B5(6)]DEAAFQ[S8]F[Bta]H-NH2
modifications: staple 1-4, 4-11
notes: Stapled peptide composition
B17: I-478 (peptide)
peptide: XDAXDEAAFNXFXH
modifications: not fully specified; Ac-PL3-Asp-Ala-B5-Asp-Glu-Ala-Ala-Phe-Asn-S8-Phe-BztA-1MeH-NH2; N-terminal acetyl, C-terminal amide; stapled PL3-B5 and B5-S8
notes: Stapled peptide composition

The binders below were run against T1, B-cat-Halo (beta-catenin HaloTag …) (assay: cell-based or functional assay).
With B1 the “NanoBRET Abs IC50” value was over 20000 nM.

The binders below were run against T2, full-length beta-Catenin (Uniprot ID …) (assay: fluorescence polarization competition; displacement of 5FAM-TCF4(10-53) from full-length beta-catenin).
Experimental: The plate was incubated protected from light for 60 minutes at 20° C. prior to read. Reads were performed on a CLARIOstar plate reader (BMG Labtech) in duplicate, and data were fitted to a 1:1 binding model with hill slope using an in-house script. All provided concentrations are final concentrations.
Binder B2 has an EC50 of 82 nM. B3 showed an EC50 of 5000 nM. B4 showed an EC50 of 5000 nM. B5 was tested, and the EC50 was 88 nM. For B6, the EC50 was 5000 nM. For B7, the EC50 was 153 nM. B8 gave an EC50 of 119 nM. Binder B9 has an EC50 of 53 nM. With B10 the EC50 was 62 nM. In the case of B11, the EC50 is reported as 11 nM. B12 showed an EC50 of 102 nM. In the case of B13, the EC50 is reported as 181 nM. In the case of B14, the EC50 is reported as 48 nM. For B15, the EC50 was 27 nM. B16 gave an EC50 of 52 nM. B17 gave an EC50 of 71 nM.
